Reference: patent publication US20060009452A1, “Therapeutic targeting of PARC/CCL18 and its signaling in pulmonary fibrosis” (priority 2004, published 2006)
“Also recorded” adds a separate entry of the source.

Assays:
[1] = test system: Sp1; experiment: TranSignal protein/DNA arrays of nuclear lysates; format: cell-based, human; conditions: LF1 and LF2
[2] = test system: mink lung epithelial cells; experiment: Mink lung epithelial cell proliferation assay (thymidine incorporation); format: cell-based
Description: Mink Lung Epithelial Cell Proliferation Assay for Active TGF-β. Mink lung epithelial cell line CCL-64 was purchased from American Type Culture Collection (ATCC, Manassas, Va.) and maintained in high-serum medium. For proliferation assays, these cells were plated in 96-well plates at 1×10^4 cells/well in low-serum fibroblast cell culture medium and incubated overnight in humidified atmosphere of 5% CO2 at 37° C. The medium was then replaced with fibroblast cell culture supernatants or titrated dilutions rhTGF-β in low-serum medium, with and without neutralizing anti-pan-TGF-β antibody (clone 1D11 from R&D Systems), and incubation continued for additional 24 hours. Six hours before the end of the assay, wells were pulsed with 1 μCi of 3H-thymidine (Amersham). Quadruplicate cultures were harvested automatically and tritiated thymidine incorporation was measured with a TopCount NXT liquid scintillation counter (Perkin Elmer, Downers Grove, Ill.). Data were expressed as percent inhibition (versus low-serum medium used as a negative control), neutralized by 1 μg/ml of anti-TGF-β antibody (this concentration of the antibody was established in preliminary experiments as sufficient to completely abrogate the inhibitory effect of the fibroblast conditioned medium on mink lung epithelial cell proliferation). […]

[3] = test system: Smad3/4; experiment: EMSA of nuclear lysates with Smad3/4 probe; format: cell-based, human
[4] = test system: lung fibroblasts; experiment: Western blotting of fibroblast culture supernatants for collagen type I / α1(I); format: cell-based, human
Description: Collagen Production Assays. Collagen was quantified as described elsewhere (Atamas S P et al.). Briefly, fibroblasts were cultured with β-aminopropionitrile (Sigma) to prevent collagen cross-linking, and Western blotting assays for collagen were performed using rabbit affinity purified anti-collagen type I antibody (Rockland, Gilbertsville, Pa.). Before electrophoresis, samples were reduced and denatured by boiling in Laemmli buffer containing β-mercaptoethanol. Human purified collagen type I (Southern Biotech, Birmingham, Ala.) was used as a positive control in these assays. The identity of collagen bands was confirmed by sensitivity to pepsin and collagenase (both from Sigma) digestion, as described (Atamas S P et al.). Under these conditions, pro-collagen appears as a single or double band around 175 kDa (Gaidarova S et al., Stefanovic B et al.). Images were collected using a Storm densitometer and band densities analyzed with ImageQuant software (Molecular Dynamics, Sunnyvale, Calif.).
Western blotting assays for collagen were performed using rabbit affinity purified anti-collagen type I antibody (Rockland, Gilbertsville, Pa.). Before electrophoresis, samples were reduced and denatured by boiling in Laemmli buffer containing β-mercaptoethanol. Human purified collagen type I (Southern Biotech, Birmingham, Ala.) was used as a positive control in these assays.
Collagen was quantified by Western blotting and the identity of collagen bands was confirmed by sensitivity to pepsin and collagenase digestion as described elsewhere in Atamas et al. (Am. J. Respir. Cell. Mol., 29:743-749 (2003)). In these assays, pro-collagen appears as a single or double band with a molecular weight of approximately 175 kDa (4,27,28).

[5] = test system: Sp1-sensitive promoter; experiment: Luciferase assay of Sp1-sensitive promoter (pGAGC6) in transfected lung fibroblasts; format: cell-based, human; conditions: pGAGC6-transfected primary lung fibroblasts
Description: FIG. 16. Stimulation with PARC increases Sp1 promoter-stimulating activity in cultured primary lung fibroblasts. Luciferase activity was measured in a chemiluminescence-based assay in cell lysates from the following fibroblast cultures: mock-transfected non-stimulated (Medium), pGAM-transfected non-stimulated (pGAM Ctrl), pGAM-transfected PARC-stimulated (PGAM PARC), pGAGC6-transfected non-stimulated (pGAGC6 Ctrl), and pGAGC6-transfected PARC-stimulated (pGAGC6 PARC).

B1: rhPARC: Recombinant human pulmonary and activation-regulated chemokine (CC chemokine CCL18), purchased from R&D Systems and Cell Sciences (protein)
chain: AQVGTNKELCCLVYTSWQIPQKFIVDYSETSPQCPKPGVILLTKRGRQICADPNKKWVQKYISDLKLNA
DNA binding by Sp1 (protein/DNA arrays) [1]: consistently increased | direct effect on proliferation of mink lung epithelial cells [2]: did not affect proliferation of mink lung epithelial cells | density of the specific Smad3 band relative to the density at time 0 ([3]; LF1, LF2, LF4, rhPARC-stimulated samples): 0.9-1.2 fold | DNA-binding activity of Smad3/4 (EMSA) ([3]; after activation with PARC): No increase; also recorded: but not Smad3/4 | concentration causing detectable stimulation of collagen production [4]: below 300 ng/ml | collagen production, dose-response ([4]; LF1 and LF4, 30 ng/ml and 300 ng/ml rhPARC): significant increase in collagen production | increase in collagen production over control non-treated cells ([4]; LF1 and LF4, 3, 6 and 12 h of activation): ≤ 1.2±0.2 fold | combined density of procollagen bands, fold higher than non-stimulated control ([4]; LF2 cells, 300 ng/ml rhPARC, 48 h): 4.2 fold | increase in densities of the collagen bands relative to the control culture ([4]; LF4, 300 ng/ml rhPARC, 24 h): 4.4 | increase in densities of the collagen bands relative to the control culture ([4]; LF4, 300 ng/ml rhPARC, 48 h): 3.2 | increase in collagen production, densitometry at shorter non-saturating exposure ([4]; LF4, 300 ng/ml rhPARC, 72 h): 3.4 fold | increase in densities of the collagen bands relative to the control culture ([4]; LF4, 300 ng/ml rhPARC, 72 h, bands saturated): 1.3 | combined density of procollagen bands, fold higher than non-stimulated control ([4]; LF4 cells, 100 ng/ml rhPARC, 48 h): 3.6 fold | Sp1 promoter-stimulating activity (luciferase) [5]: leads to activation of the Sp1-sensitive promoter
